Patent publication EP4786493A1
Residue numbers refer to the chain shown, from its start.

B1: AHP30826 (antibody, V domains shown)
VH: QVQLQQSGGGSVQAGGSLRLSCAASGTILSINAMGWYRQAPGKQRELVATITTGGNANYAHSVKGRFTISRDNAKNTVYLQMNNLKPEDTAVYYCNAEQVVVGFLQAYDVWGQGTTVTVSS
VL: DVVMTQSPLSLPVTLGQAASISCRSSQSLVHGDGNTYLNWIQQRPGQSPRRLIYKVSNRDSGVPDRFSGSGSGTDFTLKISRVEAEDVGVYYCMQGTHWPSTFGPGTKVDIK
B2: AHP32919 (antibody, V domains shown)
VH: QVQLQESGGGVVQPGGSLRLSCAASQSIGLLSTMGWYRQAAGKQRELVATITRGGSTNYGEFVKGRFTISRDNAKNTVYLQMNSLKPEDTAVYYCTADESWLGTQSYWGRGTRVTVSS
VL: QAGLTQPPSASGTPGQGVTISCSGSSSNIGSNSVNWYQQLPGTAPKLLMHSNNERSSGVPDRFSGSKSGSSASLAISGLQSEDAADYFCGAWDDSLNGYVFGTGTKLTVL
B3: AHP29153 (antibody, V domains shown)
VH: QLQQVESGGGLVQPGGSLRLSCAASRNIGILSTMGWYRQAPGKQRELVATITRGGSTNYGEFVKGRFTISRDNAKNTVYLQMNSLKPEDTAVYYCNVDESWLGTQSYWGRGTTVTVSS
VL: QSVLTQPASVSGSPGQSITISCTGTSSDVGGYKYVSWYQQPPGKAPKLIIYEVTKRPSGVPDRFSGSKSGNTASLTVSGLQAEDEADYYCLSYAGSNNVFGTGTKLTVL
B4: AHP32982 (antibody, V domains shown)
VH: B3 VH with L2V, Q4L, E6Q, T112P, T113L
VL: DIVMTQSPSSVSASVGDRVTITCRASQGISSWLAWYQQKPGKAPKLLIYAASSLQSGVPSRFSGSGSGTDFTLTISSLQPEDFATYYCQQANSFPLTFGGGTKVEIK
B5: AHP32913 (antibody, V domains shown)
VH: B3 VH with L2V, Q4L, V5M, E6Q, T113Q
VL: QAVVTQEPSLTVSPGGTVTLTCGSSTGPVTSGHYPHWYQQKPGQAPKTLIFDTSHKHPWTPAQFSGSLLGGKAALTLSGAHPEDEAEYYCLLSYSGVRVFGGGTQLIIL
B6: AHP31548 (antibody, V domains shown)
VH: B3 VH with L2V, Q4L, V5M, E6Q
VL: QSALTQPPSASGSPGQSVTISCTGTSSDIGTYNFVSWYQQHPGKAPKLIIYEVSKRPSGVPDRFSGSKSGNTASLTVSGLQAEDEADYYCKSYPRVFGTGTKLTAL

molecular target: murine Claudin 18.2 expressed on HEK293 cells (murine) (UniProt P56857); assay: flow cytometry on HEK293 cells expressing murine Claudin 18.2
Sequence (P56857 whole entry): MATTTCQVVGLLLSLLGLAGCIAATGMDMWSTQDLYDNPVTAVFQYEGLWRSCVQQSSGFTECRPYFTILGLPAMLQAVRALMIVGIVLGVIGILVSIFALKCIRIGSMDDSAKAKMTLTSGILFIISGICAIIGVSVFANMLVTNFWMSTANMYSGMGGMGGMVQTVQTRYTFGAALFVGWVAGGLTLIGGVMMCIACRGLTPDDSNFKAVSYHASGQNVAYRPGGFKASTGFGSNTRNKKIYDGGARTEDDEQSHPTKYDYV

| Binder | EC50 |
| --- | --- |
| B1 | 3.44 nM |
| B2 | 0.772 nM |
| B3 | 4.45 nM |
| B4 | 4.03 nM |
| B5 | 0.728 nM |
| B6 | 1.67 nM |
